# Measured values taken from paper PMC7840601 (2020).
# B1: FH1-4 WT (complement factor H CCPs 1-4, wild type) (domain or fragment)
# chain: EDCNELPPRRNTEILTGSWSDQTYPEGTQAIYKCRPGYRSLGNVIMVCRKGEWVALNPLRKCQKRPCGHPGDTPFGTFTLTGGNVFEYGVKAVYTCNEGYQLLGEINYRECDTDGWTNDIPICEVVKCLPVTAPENGKIVSSAMEPDREYHFGQAVRFVCNSGYKIEGDEEMHCSDDGFWSKEKPKCVEISCKSPDVINGSPISQKIIYKENERFQYKCNMGYEYSERGDAVCTESGWRPLPSCE
# Target: human C3b (CompTech) (human)
# Assay: SPR
# Sequence of human C3b (CompTech) (human) (chain, as listed by the source, chain 1 of 2): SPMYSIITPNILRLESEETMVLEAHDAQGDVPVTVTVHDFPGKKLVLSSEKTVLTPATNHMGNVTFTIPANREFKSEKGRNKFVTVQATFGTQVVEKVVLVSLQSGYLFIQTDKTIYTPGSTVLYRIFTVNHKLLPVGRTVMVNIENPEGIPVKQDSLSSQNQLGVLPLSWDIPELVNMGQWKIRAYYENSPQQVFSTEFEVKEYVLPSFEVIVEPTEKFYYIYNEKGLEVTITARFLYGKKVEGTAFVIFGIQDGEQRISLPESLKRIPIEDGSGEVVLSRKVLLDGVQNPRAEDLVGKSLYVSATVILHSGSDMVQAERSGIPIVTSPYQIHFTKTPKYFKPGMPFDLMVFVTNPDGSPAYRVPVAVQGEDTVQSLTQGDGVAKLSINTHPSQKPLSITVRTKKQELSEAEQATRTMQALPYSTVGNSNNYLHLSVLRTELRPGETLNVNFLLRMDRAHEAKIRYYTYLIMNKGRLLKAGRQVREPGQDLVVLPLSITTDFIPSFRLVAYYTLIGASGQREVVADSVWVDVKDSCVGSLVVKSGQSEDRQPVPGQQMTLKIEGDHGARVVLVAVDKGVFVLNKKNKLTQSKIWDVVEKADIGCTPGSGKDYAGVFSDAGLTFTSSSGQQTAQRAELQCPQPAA
# Sequence of human C3b (CompTech) (human) (chain, as listed by the source, chain 2 of 2): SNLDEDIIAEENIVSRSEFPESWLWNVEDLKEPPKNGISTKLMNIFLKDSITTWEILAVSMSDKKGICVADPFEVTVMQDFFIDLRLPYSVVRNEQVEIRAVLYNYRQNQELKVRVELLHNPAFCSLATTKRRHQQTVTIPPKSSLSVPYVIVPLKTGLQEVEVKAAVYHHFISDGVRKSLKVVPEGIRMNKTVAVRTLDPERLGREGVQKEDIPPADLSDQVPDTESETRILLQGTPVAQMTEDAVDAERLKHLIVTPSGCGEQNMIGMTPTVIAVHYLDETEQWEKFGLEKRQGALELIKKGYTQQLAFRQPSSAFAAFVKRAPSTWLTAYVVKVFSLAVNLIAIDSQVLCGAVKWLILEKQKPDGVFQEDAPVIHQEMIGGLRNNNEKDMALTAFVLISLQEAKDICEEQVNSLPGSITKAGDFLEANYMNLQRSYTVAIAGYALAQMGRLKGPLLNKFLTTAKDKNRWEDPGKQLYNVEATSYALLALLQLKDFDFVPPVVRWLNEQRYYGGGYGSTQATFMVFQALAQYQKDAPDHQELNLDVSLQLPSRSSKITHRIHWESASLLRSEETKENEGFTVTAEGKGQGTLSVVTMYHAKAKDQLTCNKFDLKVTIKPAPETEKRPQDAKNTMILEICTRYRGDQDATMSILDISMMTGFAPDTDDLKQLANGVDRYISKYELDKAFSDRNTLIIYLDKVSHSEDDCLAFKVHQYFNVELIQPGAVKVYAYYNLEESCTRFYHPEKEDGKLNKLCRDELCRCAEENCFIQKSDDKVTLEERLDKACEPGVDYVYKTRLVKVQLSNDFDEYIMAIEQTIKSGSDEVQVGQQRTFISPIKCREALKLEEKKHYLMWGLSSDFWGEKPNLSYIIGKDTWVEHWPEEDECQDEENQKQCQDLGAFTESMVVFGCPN
binder,measurement,value
B1,Kd,18.1 µM
